Results: patent publication US20020052313A1
pKd: −log10 of the molar value.

Assays:
[1] = biological target: low-affinity NGF binding sites on murine unfractionated sIg^+ B cells (mouse) (UniProt Q9Z0W1); test: equilibrium binding of 125I-NGF on acid-treated murine splenic B lymphocytes (unfractionated sIg+ cells), low-affinity sites
[2] = biological target: high-affinity NGF binding sites on murine unfractionated sIg^+ B cells (mouse) (UniProt Q3UFB7); test: equilibrium binding of 125I-NGF on acid-treated murine splenic B lymphocytes (unfractionated sIg+ cells), high-affinity sites
UniProt Q3UFB7, sequence (Q3UFB7 34-799): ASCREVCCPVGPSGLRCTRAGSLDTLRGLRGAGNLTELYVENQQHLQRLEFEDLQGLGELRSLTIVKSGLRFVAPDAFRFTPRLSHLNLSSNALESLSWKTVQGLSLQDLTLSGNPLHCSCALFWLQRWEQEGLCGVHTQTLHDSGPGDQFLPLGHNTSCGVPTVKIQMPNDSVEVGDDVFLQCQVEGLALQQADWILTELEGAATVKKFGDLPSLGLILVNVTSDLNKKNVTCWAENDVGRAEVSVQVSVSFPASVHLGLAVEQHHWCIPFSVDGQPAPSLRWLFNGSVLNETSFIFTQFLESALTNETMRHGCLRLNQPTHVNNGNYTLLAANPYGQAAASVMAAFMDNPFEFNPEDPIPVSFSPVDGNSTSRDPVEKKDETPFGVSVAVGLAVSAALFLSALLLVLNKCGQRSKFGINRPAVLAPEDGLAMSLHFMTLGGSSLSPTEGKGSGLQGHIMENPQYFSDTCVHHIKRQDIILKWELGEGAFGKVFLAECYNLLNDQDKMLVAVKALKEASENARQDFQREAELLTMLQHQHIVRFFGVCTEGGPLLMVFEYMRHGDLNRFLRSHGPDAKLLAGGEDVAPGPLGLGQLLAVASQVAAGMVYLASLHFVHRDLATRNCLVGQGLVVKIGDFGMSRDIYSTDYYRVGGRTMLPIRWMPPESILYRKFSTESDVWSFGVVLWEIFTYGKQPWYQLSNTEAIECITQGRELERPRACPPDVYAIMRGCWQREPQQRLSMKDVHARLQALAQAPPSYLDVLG

[3] = biological target: p75^NGFR (human, on B lymphocytes) (human) (UniProt P08138); test: equilibrium binding of 125I-NGF, Scatchard analysis, large (in vivo activated) human tonsil B cells, low-affinity class of sites
UniProt P08138, sequence (P08138 29-427): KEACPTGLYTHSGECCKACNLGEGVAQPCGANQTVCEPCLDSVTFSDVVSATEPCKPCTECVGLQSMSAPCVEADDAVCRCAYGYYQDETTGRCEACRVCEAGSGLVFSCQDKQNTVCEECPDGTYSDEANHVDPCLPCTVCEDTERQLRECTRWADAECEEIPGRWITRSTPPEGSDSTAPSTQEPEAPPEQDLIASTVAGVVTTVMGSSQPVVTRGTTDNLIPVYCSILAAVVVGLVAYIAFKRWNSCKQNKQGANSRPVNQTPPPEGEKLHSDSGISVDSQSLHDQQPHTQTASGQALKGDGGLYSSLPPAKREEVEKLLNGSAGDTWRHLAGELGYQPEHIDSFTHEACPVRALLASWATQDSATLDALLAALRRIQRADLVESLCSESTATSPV

[4] = biological target: p75^NGFR (human, on B lymphocytes) (human) (UniProt P08138); test: equilibrium binding of 125I-NGF, Scatchard analysis, small resting human B lymphocytes after acid (pH 3.0) treatment, low-affinity receptors
[5] = biological target: gp39 (CD40 ligand) (human) (UniProt P29965); test: cell-based or functional assay
UniProt P29965, sequence (P29965 whole entry): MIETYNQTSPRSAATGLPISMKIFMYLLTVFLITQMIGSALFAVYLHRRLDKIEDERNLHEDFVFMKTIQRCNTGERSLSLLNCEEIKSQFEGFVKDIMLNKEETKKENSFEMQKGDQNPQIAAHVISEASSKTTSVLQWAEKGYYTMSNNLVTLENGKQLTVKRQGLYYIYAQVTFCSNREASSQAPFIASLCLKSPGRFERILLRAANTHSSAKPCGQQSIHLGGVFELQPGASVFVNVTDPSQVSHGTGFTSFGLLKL

UniProt Q9Z0W1, sequence (Q9Z0W1 32-427): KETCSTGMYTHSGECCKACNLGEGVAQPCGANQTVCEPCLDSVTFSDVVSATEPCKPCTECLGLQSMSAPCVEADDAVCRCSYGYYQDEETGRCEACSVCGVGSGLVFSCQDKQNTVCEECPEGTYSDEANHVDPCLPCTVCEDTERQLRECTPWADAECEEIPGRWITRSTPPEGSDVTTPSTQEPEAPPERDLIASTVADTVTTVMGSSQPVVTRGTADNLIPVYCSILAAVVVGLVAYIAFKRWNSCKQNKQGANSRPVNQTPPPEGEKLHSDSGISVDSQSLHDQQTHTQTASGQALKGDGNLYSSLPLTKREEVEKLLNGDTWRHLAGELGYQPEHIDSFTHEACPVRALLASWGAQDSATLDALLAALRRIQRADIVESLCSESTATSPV

pKd [1] | binding sites per cell (binding sites per cell) [1] | pKd [2] | binding sites per cell (binding sites per cell) [2] | pKd [3] | binding sites/cell (binding sites/cell) [3] | pKd [4] | binding sites/cell (binding sites/cell) [4] | IgA (ng/ml) in supernatants of PWM-stimulated human PBMNC, PWM + CD40µ (CD4µ control 9,865) [5] [ng/mL] | IgG (ng/ml) in supernatants of PWM-stimulated human PBMNC, PWM + CD40µ (CD4µ control 1,024) [5] [ng/mL] | IgM (ng/ml) in supernatants of PWM-stimulated human PBMNC, PWM + CD40µ (CD4µ control 928) [5] [ng/mL] | Substance
8.96 | 1e+06 | 9.87 | 4800 | 9.00 | 1e+06 | 9.00 | 1e+06 |  |  |  | ^125I-NGF (Nerve Growth Factor, radio-iodinated, Amersham) (ligand)
 |  |  |  |  |  |  |  | 4790 | 554 | 1530 | soluble CD40 pentamer (from UniProt P25942 21-193)
